Measured values published in patent publication US20040152179A1 (US Dept. of Health and Human Services, published 2004).

Key:
[1] = target: diphtheria toxin receptor on Cos-7 cells (monkey kidney) (monkey) (UniProt Q09118); experiment: cold competitor against I^125-labelled DT on Cos-7 cells; reference native DT
[2] = target: diphtheria toxin receptor on human cell lines (U251, HeLa, Jurkat) (human) (UniProt Q99075); experiment: cell-based or functional assay
[3] = target: T1, DTR (diphtheria toxin receptor binding domain, codons 384-535 of DT), control protein (UniProt P00588 416-567); experiment: competition with I^125-labelled DT on Cos-7 cells
T1 construct: range 384-535

Molecule	fold lower affinity than native DT [1]	Apoptosis Prevention (%), HeLa cells, 0.2 uM STS, 2.17 uM Bcl-xL-DTR, 10 hrs [2]	binding result [3]
Bcl-xL-DTR	3 fold	32.4%	–
diphtheria toxin receptor on Cos-7 cells (monkey kidney) (receptor, whole, on cells; also called DT receptor) DLQEADLDLLRVTLSSKPQALATPSKEEHGKRKKKGKGLGKKRDPCLRKYKDFCIHGECKYVKELRAPSCICHPGYHGERCHGLSL	–	–	no binding
